Experimental data: publication PMC8519878 (Cell Reports, 2021)

Molecular target: SARS-CoV-2 S2P spike (SARS-CoV-2, ancestral spike (P0DTC2 …, stabilised))
Assay: cryo-EM structure

B1: antigen-binding fragment (Fab) of antibody 5-7, expressed as Fab (Fab, V domains shown)
VH: QVQLVQSGAEVKKPGASVKVSCKASGYTFTSYYMHWVRQAPGQGLEWMGVINPSGGSTSYAEKFRGRVTMTRDTSTSTVYMELSSLRSEDTAVYYCARDREPHSDSSGYWDSLKYYYYYALDVWGQGTTVTVSS
VL: AIQLTQSPSSLSASVGDRVTITCRASQGISSYLAWYQQKPGKAPELLIYAASTLQSGVPSRFSGSGSGTDFTLTISSLQPEDFATYYCQQLNTYPFTFGPGTKVDIK
For B1, the “stoichiometry N” value was 3 Fabs per trimer.
